Legend:
[1] = target: soluble human BLyS (human) (UniProt Q9Y275); experiment: DELFIA competition, Eu-hBLyS binding to coated BR3
[2] = target: soluble human BLyS (human) (UniProt Q9Y275); experiment: DELFIA competition, Eu-hBLyS binding to coated BCMA
[3] = target: soluble mouse BLyS (mouse) (UniProt Q9WU72); experiment: DELFIA competition, Eu-mBLyS binding to coated BCMA
[4] = target: soluble human BLyS (human) (UniProt Q9Y275); experiment: DELFIA competition, Eu-hBLyS binding to coated TACI
[5] = target: soluble mouse BLyS (mouse) (UniProt Q9WU72); experiment: DELFIA competition, Eu-mBLyS binding to coated BR3
[6] = target: soluble mouse BLyS (mouse) (UniProt Q9WU72); experiment: DELFIA competition, Eu-mBLyS binding to coated TACI

IC50 [1] [nM]	IC50 [2] [nM]	IC50 [3] [nM]	IC50 [4] [nM]	IC50 [5] [nM]	IC50 [6] [nM]	Substance
0.0093	< 0.0003	0.0115	< 0.0003	0.147	< 0.0003	AMG623
0.159	0.112	0.784	0.0127	0.515	0.0158	TACI-Ig (Fc fusion)
